Assay results published in publication PMC7275037, “DNA origami-based single-molecule force spectroscopy elucidates RNA Polymerase III pre-initiation complex stability”.
“And” between values parts separate entries of the source, which are not always exact repeats. Identical values can stand only once.

B1: U6 snRNA promoter in DNA origami force clamp (dsDNA)
DNA 1: CGGACCAAGATGATTTGATTGAAGGGCTTAAAATAGGTGTTAGAGTAACCCTTGA
DNA 2: TCAAGGGTTACTCTAACACCTATTTTAAGCCCTTCAATCAAATCATCTTGGTCCG

Columns and labels:
[1] = biological target: TBP;TFIIA (single chain);TFIIB (Homo sapiens;Homo sapiens;Homo sapiens?) (UniProt P20226+P52655+P52657+Q00403); assay: smFRET; conditions: Binding buffer and temperature not in the material (origami folding buffer: 10 mM Tris pH 7.6, 1 mM EDTA, 20 mM MgCl2, 5 mM NaCl); TFIIB 0.2 uM, TFIIA 2 uM …
TBP;TFIIA (single chain);TFIIB (Homo sapiens;Homo sapiens;Homo sapiens?), sequence (P20226 whole entry, chain 1 of 4): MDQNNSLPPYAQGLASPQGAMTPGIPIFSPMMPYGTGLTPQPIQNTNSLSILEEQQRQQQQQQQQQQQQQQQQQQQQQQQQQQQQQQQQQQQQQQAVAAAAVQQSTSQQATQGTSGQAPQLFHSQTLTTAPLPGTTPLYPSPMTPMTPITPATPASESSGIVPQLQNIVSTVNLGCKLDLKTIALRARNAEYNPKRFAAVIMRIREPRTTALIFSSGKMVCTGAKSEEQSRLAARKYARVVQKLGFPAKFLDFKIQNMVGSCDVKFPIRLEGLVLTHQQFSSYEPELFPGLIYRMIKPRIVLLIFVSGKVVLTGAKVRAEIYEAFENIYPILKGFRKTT
TBP;TFIIA (single chain);TFIIB (Homo sapiens;Homo sapiens;Homo sapiens?), sequence (P52655 whole entry, chain 2 of 4): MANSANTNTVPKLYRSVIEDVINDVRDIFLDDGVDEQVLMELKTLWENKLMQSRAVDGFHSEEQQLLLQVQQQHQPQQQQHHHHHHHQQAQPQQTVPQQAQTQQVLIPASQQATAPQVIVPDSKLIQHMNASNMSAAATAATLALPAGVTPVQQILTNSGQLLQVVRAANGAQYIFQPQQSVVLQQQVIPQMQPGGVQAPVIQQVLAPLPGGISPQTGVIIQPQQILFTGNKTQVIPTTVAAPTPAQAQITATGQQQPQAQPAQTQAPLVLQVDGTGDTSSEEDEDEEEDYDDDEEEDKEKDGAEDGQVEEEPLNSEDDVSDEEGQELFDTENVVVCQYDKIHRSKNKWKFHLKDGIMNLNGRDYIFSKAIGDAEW
TBP;TFIIA (single chain);TFIIB (Homo sapiens;Homo sapiens;Homo sapiens?), sequence (P52657 whole entry, chain 3 of 4): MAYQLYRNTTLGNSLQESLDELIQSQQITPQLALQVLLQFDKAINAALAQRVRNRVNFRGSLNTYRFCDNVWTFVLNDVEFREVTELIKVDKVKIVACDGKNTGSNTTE
TBP;TFIIA (single chain);TFIIB (Homo sapiens;Homo sapiens;Homo sapiens?), sequence (Q00403 whole entry, chain 4 of 4): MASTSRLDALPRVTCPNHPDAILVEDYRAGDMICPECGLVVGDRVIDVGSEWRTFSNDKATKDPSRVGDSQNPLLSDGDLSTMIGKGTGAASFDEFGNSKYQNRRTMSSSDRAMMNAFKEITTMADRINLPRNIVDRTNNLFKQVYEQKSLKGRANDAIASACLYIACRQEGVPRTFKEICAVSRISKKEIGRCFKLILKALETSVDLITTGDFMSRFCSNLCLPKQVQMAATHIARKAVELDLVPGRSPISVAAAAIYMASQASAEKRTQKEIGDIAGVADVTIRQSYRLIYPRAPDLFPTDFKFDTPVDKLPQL

[2] = biological target: TBP;TFIIA (single chain) (Homo sapiens;Homo sapiens) (UniProt P20226+P52655+P52657); assay: smFRET; conditions: Binding buffer and temperature not in the material (origami folding buffer: 10 mM Tris pH 7.6, 1 mM EDTA, 20 mM MgCl2, 5 mM NaCl); TFIIB 0.2 uM, TFIIA 2 uM …
TBP;TFIIA (single chain) (Homo sapiens;Homo sapiens), sequence (P20226 whole entry, chain 1 of 3): as the sequence (P20226 whole entry, chain 1 of 4) above
TBP;TFIIA (single chain) (Homo sapiens;Homo sapiens), sequence (P52655 whole entry, chain 2 of 3): as the sequence (P52655 whole entry, chain 2 of 4) above
TBP;TFIIA (single chain) (Homo sapiens;Homo sapiens), sequence (P52657 whole entry, chain 3 of 3): as the sequence (P52657 whole entry, chain 3 of 4) above

[3] = biological target: TBP (Homo sapiens, UniProt P20226 169-339); assay: smFRET; TIRF dwell times; 0 pN; 20 nM TBP; E=0.39; Binding buffer and temperature not in the material (origami folding buffer: 10 mM Tris pH 7.6, 1 mM EDTA, 20 mM MgCl2, 5 mM NaCl); TFIIB 0.2 uM, TFIIA 2 uM, other proteins 20 nM; conditions: protein: recombinant; tags: N-terminal His; label: ATTO 532 and ATTO 647N on S17 strand (positions by colour only); ds region (U6_comp) within ssDNA spring
TBP, sequence (P20226 169-339): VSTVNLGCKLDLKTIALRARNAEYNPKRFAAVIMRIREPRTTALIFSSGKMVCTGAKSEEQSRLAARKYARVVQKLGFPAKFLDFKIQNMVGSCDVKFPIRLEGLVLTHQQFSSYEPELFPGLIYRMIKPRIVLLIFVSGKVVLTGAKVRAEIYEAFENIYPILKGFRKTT

Molecule | binding signal (% high FRET (bent)) [1] | binding signal (% high FRET (bent)) [2] | binding result [3]
AAGCTTTAGGGCGCCTATAAAAGGGGGTTCGGGCG (double strand) [AdMLP promoter in DNA origami force clamp] | 72 and 53 | 26 | 
B1 |  |  | binds
